B1: A19-30.1 (antibody, V domains shown)
VH: QVQLVESGGGVVQPGRSLRLSCAASGFTFSNYGMHWVRQAPGKGLEWLAVISYDGSNKYYADSVKGRFTISRDNSKNTLFLQMNSLRAEDTAVYYCAKESQFGELFEALDYWGQGTLVTVSS
VL: SYELTQPPSVSVSPGQTARITCSGDALPRKYAFWYQQKSGQAPVLVISEDSKRPSGIPERFSGSSSGTMATLTISGAQVEDEADYYCYSTDSSGNHRVFGGGTKLTVL
B2: A20-36.1 (antibody, V domains shown)
VH: QVQLVESGGGVVQPGRSLRLSCAASGFIFSSYGVHWVRQAPGKGLEWVAVIWHDESNKDYADSVKGRFTISRDNSKNTVYLQMNSLRAEDTAMYYCARDGYDFLTGAYELDYWGQGTLVTVSS
VL: SYELTQPPSVSVSPGQTARITCSGDALPKQYAYWYQQKPGQAPVVVIYKDSERPSGIPERFSGSSSGTTVTLTISGVQAEDEADYYCQSADSSGTWVFGGGTKLTVL
B3: A20-9.1 (antibody, V domains shown)
VH: QVQLVESGGGVVQPGRSLRLSCAASGFTFSSYGMHWVRQAPGKGLEWVAFISYDGSNKYYADSVKGRFTISRDNSKNTLYLQMNSLRAEDTAVYYCAKDYWSVAAGTSWFDPWGQGTLVSVSS
VL: B2 VL
B4: A19-61.1 (antibody, V domains shown)
VH: QVQLVESGGGVVQPGRSLRLSCAASGFTFSSYAFHWVRQAPGKGLEWVAVISYDGSNQYYADSVKGRFTISRDNSKNTLYLQMNSLRADDTAVYYCARDLAIAVAGTWHYYNGMDVWGQGTTVTVSS
VL: DIQMTQSPSSVSASVGDRVIITCRASQGISSWLAWYQQKPGKAPKVLIYDASSLQSGVPSRFSGSGYGTDFTLTISSLQPEDSATYYCQQAKSFPITFGQGTRLEIK
B5: A23-97.1 (antibody, V domains shown)
VH: QVQLVESGGGVVQPGGSLRLSCAASGFTFSSFGMHWVRQAPGKGLEWVAFIRYDGSNKYYADSVKGRFTISRDNSKNTLYLQMNSLRAEDTAVYYCAKTELYYYDSSGPLGWGQGTLVTVSS
VL: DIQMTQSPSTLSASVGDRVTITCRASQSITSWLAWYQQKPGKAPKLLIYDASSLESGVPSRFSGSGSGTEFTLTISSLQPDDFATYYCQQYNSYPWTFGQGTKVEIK
B6: A23-105.1 (antibody, V domains shown)
VH: QVQLVESGGGVVQPGRSLRLSCAASGFTFSNYAIHWVRQAPGKGLEWVAVISYDGSNKYYADSVKGRFTISRDNSKNTLYLEMNSLRAEDMAVYYCARVGPYQYDSSAAFDIWGQGTMVTVSS
VL: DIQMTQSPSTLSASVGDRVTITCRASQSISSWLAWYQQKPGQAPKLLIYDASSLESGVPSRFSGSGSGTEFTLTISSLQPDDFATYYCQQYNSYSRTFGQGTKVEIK
B7: A19-82.1 (antibody, V domains shown)
VH: QVQLVESGGGVVQPGRSLRLSCVVSGLIFSTYDMHWVRQAPGKGLEWVAVISYDGSYKHYADSVKGRFTISRDSSKNTLYLQMNSLRPEDTAVYYCAKGEGVVAGTGKFDYWGQGTLVTVSS
VL: SYVLTQPPSVSVAPGQTARITCGGNNIGSKSVHWYQQKPGQAPVLVVYDDSDRPSGIPERFSGSNSGNTATLTISRVEAGDEADYYCQVWDGSGDPWVFGGGTKLTVL
B8: A23-113.1 (antibody, V domains shown)
VH: QVHLEESGGAVVQPGRSLRLSCAASGFTFSSYGMHWVRQAPGKGLEWVAVISHDGSYKYYADSVKGRFTISRDNSKDTLYLQTNSLRAEDTAMYYCAKSYGYWMAYFDYWGQGTLVTVSS
VL: DIQMTQSPSSLSASVGDRVTITCRASQDISNYLAWYQQKPGKVPKLLIYAASTLQSGVPSRFSGSGSGTDFTLTISSLQPEDVATYYCQKYNSPWHTFGGGTKVEIK
B9: A23-80.1 (antibody, V domains shown)
VH: QVQLVQSGAEVKKPGASVKVSCKASGYTFTSNGVTWVRQAPGQGLEWMGWISTYNGDTNYAQKLQGRVSMTTDTSTRTVYMELRSLRSDDTAVYYCARVGDAYCSGGSCYHFDYWGQGTLVTVSS
VL: EIVMTQSPATLSVSPGERATLSCRASQSVSTNLAWYQQKPGQAPRLLIYGASTRATGIPARFSGSGSGTEFTLTISSLQSEDFALYYCQQYDNWPPEFTFGPGTKVDIK
B10: A19-1.1 (antibody, V domains shown)
VH: QVQLVESGGGVVQPGRSLRLSCAASGFTFTNYAMHWVRQAPGKGLEWVAVISNDGSDKYYADSVKGRFTISRDNSKSTVYLQMSSLRPEDTAVYFCARDPPQVHWSLDYWGQGTLVTVSS
VL: QSALTQPPSASGSPGQSVTISCTGTSSDVGDYNYVSWYQHHPGKAPKLIIYDVSKRPSGVPDRFSGSKSGDTASLTVSGLQAEDEADYYCSSYAGNNNAVFGTGTKVTVL
B11: A19-46.1 (antibody, V domains shown)
VH: QVQLVESGGGVVQPGRSLRLSCAASGFTLSSYGMHWVRQAPGKGLEWVAVISYDGSNKYYVDSVKGRFTISRDNSKNTLYLQMNSLRAEDTAVYYCARGWAYWELLPDYYYGMDVWGQGTTVTVSS
VL: QTVVTQEPSFSVSPGGTVTLTCGLSSGSVSTAYFPSWYQQTPGQAPRTLIYGTNTRSSGVPDRFSGSILGNKAALTITGAQADDESDYYCVLYMGRGIVVFGGGTKLTVL
B12: A20-29.1 (antibody, V domains shown)
VH: EVQLVESGGGLVQPGRSLRLSCAASGFTFDDYAMHWVRQTPGKGLEWVSGISWNSGDIDYADSVKGRFTISRDNAKNSLYLQMNSLRTEDTALYYCTKGWFGEFFGAGSICDYWGQGTLVTVSS
VL: EIVMTQSPATLSVSPGERATLSCRASQSVSNNLAWYQQKPGQAPRLLIYGASTRATGIPARFSGSGSGTEFTLTISSLQSEDFAVYYCQQYNNWPLFGQGTKVEIK

Biological target: T1, SARS-CoV-2 S1 (SARS-CoV-2, UniProt P0DTC2 14-681)
T1 construct: range 1-681
Test: ELISA

Binder	binding result
B1	binds

Biological target: SARS-CoV-2 RBD (SARS-CoV-2, UniProt P0DTC2 319-541)
Test: ELISA

Binder	binding result
B1	binds
B2	no binding
B3	no binding

Biological target: SARS-CoV-2 NTD (SARS-CoV-2, UniProt P0DTC2 14-305)
Test: ELISA

Binder	binding result
B4	no binding
B5	no binding
B6	no binding
B7	no binding
B8	no binding
B9	no binding
B10	no binding
B1	no binding
B2	no binding
B3	no binding

Biological target: full-length SARS-CoV-2 spike, WA-1 / Wuhan-1 (S wt) (SARS-CoV-2, UniProt P0DTC2 14-1273)
Test: cell-based or functional assay

Binder	pseudotyped virus neutralization IC50 [µg/mL]	pseudotyped virus neutralization IC80 [µg/mL]
B11	0.0398	0.129
B4	0.0709	0.163
B5	0.484	5.28
B6	0.0889	0.228
B12	0.348	1.36
B7	0.72	5.93
B8	0.393	7.81
B9	0.321	–
B10	0.126	0.53
B2	1.39	3.76
B3	1.21	–
